B1: CPEB3 Ribozyme (parent)
chain: GGGGGCCACAGCAGAAGCGUUCACGUCGCGGCCCCUGUCAGAUUCUGGUGAAUCUGCGAAUUCUGCUGU

This is an account of results in the RNAGym collection of RNA variant scans (doi:10.7554/elife.80360).

This data set covers variants of B1. Nature of the data set: self-cleavage, relative activity (ratio to wild type); higher = more cleavage; co-transcriptional.
Regarding GGGGGCCACAGCAGAAGCGUUCACGUCGCGGCCCCUGUCAGAUUCUGGUGAAUUUGCGAAUUCUGCUUU, the self-cleavage is 1.06.
Next, GGGGGCCACAGCAGAAGCGUUCACGUCGCGGCCCCUGUCAGAUUCUGGUGAAUUUGCGAAUUCUGCUCU: 1.02.
Next, GGGGGCCACAGCAGAAGCGUUCACGUCGCGGCCCCUGUCAGAUUCUGGUGAAUUUGCGAAUUCUACUGU: 0.884.
With GGGGGCCACAGCAGAAGCGUUCACGUCGCGGCCCCUGUCAGAUUCUGGUGAAUUUGCGAAUUCUCCUGU, the self-cleavage was 0.561.
Next, GGGGGCCACAGCAGAAGCGUUCACGUCGCGGCCCCUGUCAGAUUCUGGUGAAUAUGCGAAUUCUGCAGU: 0.954; GGGGGCCACAGCAGAAGCGUUCACGUCGCGGCCCCUGUCAGAUUCUGGUGAAUGUGCGAUUUCUGCUGU: 0.393; GGGGGCCACAGCAGAAGCGUUCACGUCGCGGCCCCUGUCAGAUUCUGGUGAAUGUGCGAGUUCUGCUGU: 0.541.
As to GGGGGCCACAGCAGAAGCGUUCACGUCGCGGCCCCUGUCAGAUUCUGGUGAAUGUGCGACUUCUGCUGU, the self-cleavage came to 0.282.
The result for GGGGGCCACAGCAGAAGCGUUCACGUCGCGGCCCCUGUCAGAUUCUGGUGAAUGUGAGAAUUCUGCUGU reads 0.348; that for GGGGGCCACAGCAGAAGCGUUCACGUCGCGGCCCCUGUCAGAUUCUGGUGAAUGUGGGAAUUCUGCUGU, 0.274; that for GGGGGCCACAGCAGAAGCGUUCACGUCGCGGCCCCUGUCAGAUUCUGGUGAAUGUGCGAAUUCUGUUGU, 0.821.
With GGGGGCCACAGCAGAAGCGUUCACGUCGCGGCCCCUGUCAGAUUCUGGUGAAUGUGCGGAUUCUGCUGU, the self-cleavage was determined as 0.957.
For GGGGGCCACAGCAGAAGCGUUCACGUCGCGGCCCCUGUCAGAUUCUGGUGAAUGUGCGCAUUCUGCUGU, the self-cleavage stood at 0.478.
Next, GGGGGCCACAGCAGAAGCGUUCACGUCGCGGCCCCUGUCAGAUUCUGGUGAAUUUACGAAUUCUGCUGU: 0.923.
The result for GGGGGCCACAGCAGAAGCGUUCACGUCGCGGCCCCUGUCAGAUUCUGGUGAAUUUUCGAAUUCUGCUGU reads 0.75; that for GGGGGCCACAGCAGAAGCGUUCACGUCGCGGCCCCUGUCAGAUUCUGGUGAAUUUCCGAAUUCUGCUGU, 0.466.
Regarding GGGGGCCACAGCAGAAGCGUUCACGUCGCGGCCCCUGUCAGAUUCUGGUGAAUGUGCGAAUUCGGCUGU, the self-cleavage came out at 0.533.
GGGGGCCACAGCAGAAGCGUUCACGUCGCGGCCCCUGUCAGAUUCUGGUGAAUGCGCGAAUUCUGCUGU: the self-cleavage was found to be 0.381.
In the case of GGGGGCCACAGCAGAAGCGUUCACGUCGCGGCCCCUGUCAGAUUCUGGUGAAUGUGCGAAUUCUGCUCU, the self-cleavage stood at 0.947.
GGGGGCCACAGCAGAAGCGUUCACGUCGCGGCCCCUGUCAGAUUCUGGUGAAUGUGCGAAUUCUGCUAU: the self-cleavage worked out at 0.99.
In the case of GGGGGCCACAGCAGAAGCGUUCACGUCGCGGCCCCUGUCAGAUUCUGGUGAAUACGCGAAUUCUGCUGU, the self-cleavage stood at 0.656.
Turning to GGGGGCCACAGCAGAAGCGUUCACGUCGCGGCCCCUGUCAGAUUCUGGUGAAUAAGCGAAUUCUGCUGU, the self-cleavage was determined as 0.743.
GGGGGCCACAGCAGAAGCGUUCACGUCGCGGCCCCUGUCAGAUUCUGGUGAAUAGGCGAAUUCUGCUGU: the self-cleavage stood at 0.796.
Take GGGGGCCACAGCAGAAGCGUUCACGUCGCGGCCCCUGUCAGAUUCUGGUGAAUGUGCUAAUUCUGCUGU: the self-cleavage amounted to 0.93.
For GGGGGCCACAGCAGAAGCGUUCACGUCGCGGCCCCUGUCAGAUUCUGGUGAAUGUGCCAAUUCUGCUGU, the self-cleavage was found to be 0.829.
Take GGGGGCCACAGCAGAAGCGUUCACGUCGCGGCCCCUGUCAGAUUCUGGUGAAUAUGCUAAUUCUGCUGU: the self-cleavage amounted to 0.968.
As to GGGGGCCACAGCAGAAGCGUUCACGUCGCGGCCCCUGUCAGAUUCUGGUGAAUAUGCCAAUUCUGCUGU, the self-cleavage amounted to 0.857.
Next, GGGGGCCACAGCAGAAGCGUUCACGUCGCGGCCCCUGUCAGAUUCUGGUGAAUAUGCGAAUUCUGCUGC: 1.04; GGGGGCCACAGCAGAAGCGUUCACGUCGCGGCCCCUGUCAGAUUCUGGUGAAUAUGCGAAUUCUGCUGA: 1.01; GGGGGCCACAGCAGAAGCGUUCACGUCGCGGCCCCUGUCAGAUUCUGGUGAAUUUGCGAAUGCUGCUGU: 0.951.
GGGGGCCACAGCAGAAGCGUUCACGUCGCGGCCCCUGUCAGAUUCUGGUGAAUUUGCGAAUACUGCUGU: the self-cleavage turned out to be 0.901.
As to GGGGGCCACAGCAGAAGCGUUCACGUCGCGGCCCCUGUCAGAUUCUGGUGAAUUUGCGAAUCCUGCUGU, the self-cleavage is 1.02.
Turning to GGGGGCCACAGCAGAAGCGUUCACGUCGCGGCCCCUGUCAGAUUCUGGUGAAUUCGCGAAUUCUGCUGU, the self-cleavage was found to be 0.888.
As to GGGGGCCACAGCAGAAGCGUUCACGUCGCGGCCCCUGUCAGAUUCUGGUGAAUUAGCGAAUUCUGCUGU, the self-cleavage is 0.924.
Next, GGGGGCCACAGCAGAAGCGUUCACGUCGCGGCCCCUGUCAGAUUCUGGUGAAUUUGAGAAUUCUGCUGU: 0.413.
For the variant GGGGGCCACAGCAGAAGCGUUCACGUCGCGGCCCCUGUCAGAUUCUGGUGAAUUUGGGAAUUCUGCUGU, the self-cleavage was 0.407.
As for GGGGGCCACAGCAGAAGCGUUCACGUCGCGGCCCCUGUCAGAUUCUGGUGAAUUUGUGAAUUCUGCUGU, the self-cleavage was determined as 0.385.
Take GGGGGCCACAGCAGAAGCGUUCACGUCGCGGCCCCUGUCAGAUUCUGGUGAAUGUGCGAAUUCUACUGU: the self-cleavage was found to be 0.663.
As for GGGGGCCACAGCAGAAGCGUUCACGUCGCGGCCCCUGUCAGAUUCUGGUGAAUGUGCGAAUUCUUCUGU, the self-cleavage was determined as 0.587.
